Earlier results as cited in article PMC4621241.

Biological target: MetQ (Escherichia coli) (UniProt P28635)
Sequence (P28635 23-271): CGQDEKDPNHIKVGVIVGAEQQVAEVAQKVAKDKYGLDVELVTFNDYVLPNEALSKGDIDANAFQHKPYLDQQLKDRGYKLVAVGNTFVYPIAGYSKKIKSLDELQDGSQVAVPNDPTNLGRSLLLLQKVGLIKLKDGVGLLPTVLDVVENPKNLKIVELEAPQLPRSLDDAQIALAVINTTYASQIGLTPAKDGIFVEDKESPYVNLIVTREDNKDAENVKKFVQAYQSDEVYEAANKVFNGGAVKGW

MetNI, sequence (P30750 whole entry): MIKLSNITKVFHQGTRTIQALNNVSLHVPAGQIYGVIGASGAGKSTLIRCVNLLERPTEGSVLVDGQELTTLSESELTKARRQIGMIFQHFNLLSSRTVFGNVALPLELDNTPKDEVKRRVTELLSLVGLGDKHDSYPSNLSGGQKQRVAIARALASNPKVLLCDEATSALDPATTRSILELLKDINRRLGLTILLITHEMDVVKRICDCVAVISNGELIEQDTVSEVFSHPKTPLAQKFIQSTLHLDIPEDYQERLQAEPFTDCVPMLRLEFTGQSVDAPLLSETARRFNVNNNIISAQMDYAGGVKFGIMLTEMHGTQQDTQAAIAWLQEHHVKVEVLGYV
MetNI, sequence (P31547 whole entry, further chain): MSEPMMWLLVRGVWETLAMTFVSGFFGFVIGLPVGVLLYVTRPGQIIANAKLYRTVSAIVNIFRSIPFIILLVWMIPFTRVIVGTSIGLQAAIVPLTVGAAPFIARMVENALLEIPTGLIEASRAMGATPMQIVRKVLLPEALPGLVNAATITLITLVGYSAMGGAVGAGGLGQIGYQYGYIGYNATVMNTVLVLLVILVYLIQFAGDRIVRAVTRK

Q: For MetNI (from UniProt P30750), which Kd is on record?
A: Its Kd is 74 µM.
